Six molecules from patent EP0808367B1 (MILLENNIUM PHARMACEUTICALS, INC., dated 2007) can be followed below.

In experiment [1] the target is T1, human α4β7 integrin (human, UniProt P13612 34-1032; P26010 20-798).
T1 construct: whole, on cells; also called α4β7 on RPMI 8866 cells; α4β7 on HuT 78 cells
Nature of the experiment: RPMI 8866 adhesion to chimera on protein A plate; supernatant 1:2; preincubated with control anti-VCAM-1 MAb 2G7 (-). Particulars: scale: raw fluorescence.

The target in experiment [2] is T1, human α4β7 integrin. Nature of the experiment: RPMI 8866 adhesion to chimera on protein A plate; supernatant 1:4; preincubated with control anti-VCAM-1 MAb 2G7 (-). Particulars: scale: raw fluorescence.
For experiment [3], the target named is T1, human α4β7 integrin. Description: RPMI 8866 adhesion to chimera on protein A plate; supernatant 1:8; preincubated with control anti-VCAM-1 MAb 2G7 (-). Particulars: scale: raw fluorescence.
Experiment [4] addresses T1, human α4β7 integrin. Nature of the experiment: RPMI 8866 adhesion to chimera on protein A plate; supernatant 1:16; preincubated with control anti-VCAM-1 MAb 2G7 (-). Particulars: scale: raw fluorescence.
Experiment [5] has as its target T1, human α4β7 integrin. Nature of the experiment: RPMI 8866 adhesion to chimera on protein A plate; supernatant 1:32; preincubated with control anti-VCAM-1 MAb 2G7 (-). As to conditions: scale: raw fluorescence.
The target of experiment [6] is T1, human α4β7 integrin. Description: RPMI 8866 adhesion to chimera on protein A plate; supernatant neat; preincubated with control anti-VCAM-1 MAb 2G7 (-). As to conditions: scale: raw fluorescence.
The target in experiment [7] is T1, human α4β7 integrin. Description: RPMI 8866 adhesion to chimera on protein A plate; supernatant 1:2; preincubated with blocking anti-human MAdCAM MAb 10G3 (+). As to conditions: scale: raw fluorescence.
Experiment [8] concerns the target T1, human α4β7 integrin. Nature of the experiment: RPMI 8866 adhesion to chimera on protein A plate; supernatant 1:4; preincubated with blocking anti-human MAdCAM MAb 10G3 (+). Particulars: scale: raw fluorescence.
For experiment [9], the target named is T1, human α4β7 integrin. Nature of the experiment: RPMI 8866 adhesion to chimera on protein A plate; supernatant 1:8; preincubated with blocking anti-human MAdCAM MAb 10G3 (+). Particulars: scale: raw fluorescence.
Experiment [10] deals with T1, human α4β7 integrin. Nature of the experiment: RPMI 8866 adhesion to chimera on protein A plate; supernatant 1:16; preincubated with blocking anti-human MAdCAM MAb 10G3 (+). Particulars: scale: raw fluorescence.
Experiment [11] has as its target T1, human α4β7 integrin. Description: RPMI 8866 adhesion to chimera on protein A plate; supernatant 1:32; preincubated with blocking anti-human MAdCAM MAb 10G3 (+). Particulars: scale: raw fluorescence.
Experiment [12] concerns the target T1, human α4β7 integrin. Description: RPMI 8866 adhesion to chimera on protein A plate; supernatant neat; preincubated with blocking anti-human MAdCAM MAb 10G3 (+). Particulars: scale: raw fluorescence.
For experiment [13], the target named is T1, human α4β7 integrin. Nature of the experiment: RPMI 8866 adhesion to chimera on protein A plate; chimera 1:2; preincubated with control anti-VCAM-1 MAb 2G7 (-). As to conditions: scale: raw fluorescence.
In experiment [14] the target is T1, human α4β7 integrin. Description: RPMI 8866 adhesion to chimera on protein A plate; chimera 1:4; preincubated with control anti-VCAM-1 MAb 2G7 (-). Particulars: scale: raw fluorescence.
The target in experiment [15] is T1, human α4β7 integrin. Nature of the experiment: RPMI 8866 adhesion to chimera on protein A plate; chimera 1:8; preincubated with control anti-VCAM-1 MAb 2G7 (-). As to conditions: scale: raw fluorescence.
Experiment [16] deals with T1, human α4β7 integrin. Nature of the experiment: RPMI 8866 adhesion to chimera on protein A plate; chimera 1:16; preincubated with control anti-VCAM-1 MAb 2G7 (-). As to conditions: scale: raw fluorescence.
Experiment [17] has as its target T1, human α4β7 integrin. Description: RPMI 8866 adhesion to chimera on protein A plate; chimera 1:32; preincubated with control anti-VCAM-1 MAb 2G7 (-). Particulars: scale: raw fluorescence.
For experiment [18], the target named is T1, human α4β7 integrin. Nature of the experiment: RPMI 8866 adhesion to chimera on protein A plate; chimera neat; preincubated with control anti-VCAM-1 MAb 2G7 (-). As to conditions: scale: raw fluorescence.
The target of experiment [19] is T1, human α4β7 integrin. Description: RPMI 8866 adhesion to chimera on protein A plate; chimera 1:2; preincubated with blocking anti-human MAdCAM MAb 10G3 (+). As to conditions: scale: raw fluorescence.
The target in experiment [20] is T1, human α4β7 integrin. Nature of the experiment: RPMI 8866 adhesion to chimera on protein A plate; chimera 1:4; preincubated with blocking anti-human MAdCAM MAb 10G3 (+). Particulars: scale: raw fluorescence.
Experiment [21] has as its target T1, human α4β7 integrin. Description: RPMI 8866 adhesion to chimera on protein A plate; chimera 1:8; preincubated with blocking anti-human MAdCAM MAb 10G3 (+). As to conditions: scale: raw fluorescence.
The target in experiment [22] is T1, human α4β7 integrin. Description: RPMI 8866 adhesion to chimera on protein A plate; chimera 1:16; preincubated with blocking anti-human MAdCAM MAb 10G3 (+). As to conditions: scale: raw fluorescence.
Experiment [23] has as its target T1, human α4β7 integrin. Description: RPMI 8866 adhesion to chimera on protein A plate; chimera 1:32; preincubated with blocking anti-human MAdCAM MAb 10G3 (+). Particulars: scale: raw fluorescence.
The target of experiment [24] is T1, human α4β7 integrin. Description: RPMI 8866 adhesion to chimera on protein A plate; chimera neat; preincubated with blocking anti-human MAdCAM MAb 10G3 (+). Particulars: scale: raw fluorescence.
In experiment [25] the target is T1, human α4β7 integrin. Nature of the experiment: RPMI 8866 adhesion to CHO/P transfectants, 4°C.
A further experiment has as its target T2, human α4β1 integrin (human, UniProt P13612 34-1032; P05556 21-798).
T2 construct: whole, on cells; Carried by Jurkat and Ramos cells, which express α4β1 and not α4β7; also called α4β1 on Jurkat cells; α4β1 on Ramos cells
Nature of the experiment: Figure 4B: Jurkat adhesion to CHO/P transfectants.

For experiment [26], the target named is T1, human α4β7 integrin. Description: cell adhesion assay, CHO/P transfectants.

T1 sequence (P13612 34-1032, chain 1 of 2): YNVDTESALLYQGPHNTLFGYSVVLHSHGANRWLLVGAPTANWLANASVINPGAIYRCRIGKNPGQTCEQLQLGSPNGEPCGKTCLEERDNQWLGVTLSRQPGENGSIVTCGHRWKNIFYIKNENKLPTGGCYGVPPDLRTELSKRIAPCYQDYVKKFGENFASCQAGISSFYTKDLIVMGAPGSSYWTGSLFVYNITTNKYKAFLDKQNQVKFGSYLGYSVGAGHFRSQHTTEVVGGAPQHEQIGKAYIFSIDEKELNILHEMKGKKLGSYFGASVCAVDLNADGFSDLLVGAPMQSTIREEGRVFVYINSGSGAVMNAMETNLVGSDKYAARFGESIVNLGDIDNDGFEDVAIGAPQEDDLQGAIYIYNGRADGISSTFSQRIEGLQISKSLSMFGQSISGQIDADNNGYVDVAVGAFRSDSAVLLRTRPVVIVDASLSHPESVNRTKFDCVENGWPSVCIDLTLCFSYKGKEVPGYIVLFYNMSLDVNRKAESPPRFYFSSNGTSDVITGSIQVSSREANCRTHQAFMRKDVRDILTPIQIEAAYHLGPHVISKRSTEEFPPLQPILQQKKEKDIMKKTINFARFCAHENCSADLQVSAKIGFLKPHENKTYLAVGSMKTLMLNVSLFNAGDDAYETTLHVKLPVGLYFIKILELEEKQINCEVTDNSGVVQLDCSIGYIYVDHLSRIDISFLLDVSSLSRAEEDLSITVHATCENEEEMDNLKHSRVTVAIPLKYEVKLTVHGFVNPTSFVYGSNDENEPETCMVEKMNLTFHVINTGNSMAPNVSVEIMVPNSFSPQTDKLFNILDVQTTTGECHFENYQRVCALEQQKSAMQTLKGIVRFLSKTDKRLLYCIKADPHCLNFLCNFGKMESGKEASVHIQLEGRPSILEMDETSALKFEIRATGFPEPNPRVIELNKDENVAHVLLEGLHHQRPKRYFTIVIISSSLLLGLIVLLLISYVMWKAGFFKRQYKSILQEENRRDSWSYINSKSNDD
T1 sequence (P26010 20-798, chain 2 of 2): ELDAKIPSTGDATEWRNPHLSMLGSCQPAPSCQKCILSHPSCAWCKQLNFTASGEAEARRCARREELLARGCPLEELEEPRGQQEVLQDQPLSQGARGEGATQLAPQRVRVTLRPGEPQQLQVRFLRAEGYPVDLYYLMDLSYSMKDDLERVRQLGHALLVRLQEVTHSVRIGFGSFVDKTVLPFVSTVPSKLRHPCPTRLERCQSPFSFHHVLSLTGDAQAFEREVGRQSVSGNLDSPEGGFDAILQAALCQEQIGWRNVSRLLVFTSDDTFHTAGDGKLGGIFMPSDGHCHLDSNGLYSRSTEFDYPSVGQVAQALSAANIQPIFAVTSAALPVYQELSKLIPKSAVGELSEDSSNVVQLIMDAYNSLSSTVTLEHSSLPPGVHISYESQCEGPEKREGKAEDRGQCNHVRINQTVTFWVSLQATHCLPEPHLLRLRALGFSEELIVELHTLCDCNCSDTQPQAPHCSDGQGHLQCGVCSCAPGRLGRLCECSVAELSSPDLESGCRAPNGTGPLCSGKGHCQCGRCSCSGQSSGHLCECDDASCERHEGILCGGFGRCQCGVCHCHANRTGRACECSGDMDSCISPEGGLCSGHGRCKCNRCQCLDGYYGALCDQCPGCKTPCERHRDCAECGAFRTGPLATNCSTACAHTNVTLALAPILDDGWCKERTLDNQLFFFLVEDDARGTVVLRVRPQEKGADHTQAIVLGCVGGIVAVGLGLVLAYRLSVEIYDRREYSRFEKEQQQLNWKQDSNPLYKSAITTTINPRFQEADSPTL
T2 sequence (P13612 34-1032, chain 1 of 2): as the sequence (P13612 34-1032, chain 1 of 2) above
T2 sequence (P05556 21-798, chain 2 of 2): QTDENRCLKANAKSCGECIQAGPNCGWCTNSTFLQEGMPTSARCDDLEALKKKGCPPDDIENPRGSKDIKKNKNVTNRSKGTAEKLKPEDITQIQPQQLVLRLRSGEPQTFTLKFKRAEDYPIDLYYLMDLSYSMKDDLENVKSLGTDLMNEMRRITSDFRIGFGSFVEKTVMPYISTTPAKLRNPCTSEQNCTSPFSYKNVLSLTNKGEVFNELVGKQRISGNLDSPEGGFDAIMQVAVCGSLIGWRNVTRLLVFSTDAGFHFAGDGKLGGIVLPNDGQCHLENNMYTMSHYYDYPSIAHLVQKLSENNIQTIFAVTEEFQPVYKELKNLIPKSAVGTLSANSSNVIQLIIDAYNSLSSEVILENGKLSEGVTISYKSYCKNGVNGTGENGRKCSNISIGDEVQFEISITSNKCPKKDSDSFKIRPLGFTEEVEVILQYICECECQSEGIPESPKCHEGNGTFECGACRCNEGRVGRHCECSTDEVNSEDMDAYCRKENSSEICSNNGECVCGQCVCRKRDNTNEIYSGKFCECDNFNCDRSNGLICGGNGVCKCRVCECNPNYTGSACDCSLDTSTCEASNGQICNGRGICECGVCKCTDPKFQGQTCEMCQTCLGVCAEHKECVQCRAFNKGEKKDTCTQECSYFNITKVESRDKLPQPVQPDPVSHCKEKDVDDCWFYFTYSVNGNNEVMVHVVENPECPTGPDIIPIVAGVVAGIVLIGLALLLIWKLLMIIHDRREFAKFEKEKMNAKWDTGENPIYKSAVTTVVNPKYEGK

As to “human MAdCAM-Ig chimera in the supernatant of a cloned NSO line, Sample B (Fc fusion)”, the fluorescence of bound RPMI 8866 cells with human α4β7 integrin [1] is 196000; with human α4β7 integrin [2], 196000; in the experiment with human α4β7 integrin [3] it was 196000; in the experiment with human α4β7 integrin [4] it was 52100; with human α4β7 integrin [5] it was 2930; with human α4β7 integrin [6], 196000. Further, the fluorescence of bound RPMI 8866 cells in the experiment with human α4β7 integrin [7] was determined as 3630; in the experiment with human α4β7 integrin [8], 3270; in the experiment with human α4β7 integrin [9] it was 2980; with human α4β7 integrin [10], 1650; with human α4β7 integrin [11] it was 1520; with human α4β7 integrin [12], 6530.
As to “human MAdCAM-Ig chimera in the supernatant of a cloned NSO line, Sample C (Fc fusion)”, the fluorescence of bound RPMI 8866 cells with human α4β7 integrin [1] was 196000; with human α4β7 integrin [2], 35500; with human α4β7 integrin [3], 9570; with human α4β7 integrin [4] it was 21800; with human α4β7 integrin [5] it was 1930; in the experiment with human α4β7 integrin [6], 196000. The fluorescence of bound RPMI 8866 cells with human α4β7 integrin [7] was found to be 4090; with human α4β7 integrin [8], 3920; with human α4β7 integrin [9], 3490; with human α4β7 integrin [10], 2440; with human α4β7 integrin [11], 2570; with human α4β7 integrin [12] it was 4570.
In the case of “human MAdCAM-Ig chimera in the supernatant of a cloned NSO line, Sample D (Fc fusion)”, the fluorescence of bound RPMI 8866 cells stood at 30800 in the experiment with human α4β7 integrin [1]; 46900 with human α4β7 integrin [2]; 16300 with human α4β7 integrin [3]; 5470 in the experiment with human α4β7 integrin [4]; 2660 in the experiment with human α4β7 integrin [5]; 196000 with human α4β7 integrin [6]. Also, the fluorescence of bound RPMI 8866 cells in the experiment with human α4β7 integrin [7] was found to be 6790; with human α4β7 integrin [8] it was 6020; with human α4β7 integrin [9] it was 4510; with human α4β7 integrin [10], 6550; with human α4β7 integrin [11] it was 5120; in the experiment with human α4β7 integrin [12], 7350.
As to “human MAdCAM-Ig chimera, construct HuMAdIg21 (entire extracellular domain of human MAdCAM-1 fused to Fc-mutated human IgG1 constant region) (from UniProt P01857 1-330) (Fc fusion)”, the fluorescence of bound RPMI 8866 cells is 196000 in the experiment with human α4β7 integrin [13]; 196000 in the experiment with human α4β7 integrin [14]; 18600 in the experiment with human α4β7 integrin [15]; 4250 in the experiment with human α4β7 integrin [16]; 3560 with human α4β7 integrin [17]; 196000 with human α4β7 integrin [18]. The fluorescence of bound RPMI 8866 cells was 3090 with human α4β7 integrin [19]; 1750 in the experiment with human α4β7 integrin [20]; 2200 in the experiment with human α4β7 integrin [21]; 482 with human α4β7 integrin [22]; 564 with human α4β7 integrin [23]; 3860 with human α4β7 integrin [24].

B1: murine MAdCAM-1 (receptor, UniProt Q61826 22-405, looked up)
chain: QSFQVNPPESEVAVAMGTSLQITCSMSCDEGVARVHWRGLDTSLGSVQTLPGSSILSVRGMLSDTGTPVCVGSCGSRSFQHSVKILVYAFPDQLVVSPEFLVPGQDQVVSCTAHNIWPADPNSLSFALLLGEQRLEGAQALEPEQEEEIQEAEGTPLFRMTQRWRLPSLGTPAPPALHCQVTMQLPKLVLTHRKEIPVLQSQTSPKPPNTTSAEPYILTSSSTAEAVSTGLNITTLPSAPPYPKLSPRTLSSEGPCRPKIHQDLEAGWELLCEASCGPGVTVRWTLAPGDLATYHKREAGAQAWLSVLPPGPMVEGWFQCRQDPGGEVTNLYVPGQVTPNSSSTVVLWIGSLVLGLLALVFLAYRLWKCYRPGPRPDTSSCTHL
notes: whole, on cells; Expressed on transiently transfected CHO/P cells; also called pCDMAD-7
As for B1, the binding result is recorded as “binds” with human α4β7 integrin [25] and “no binding” with human α4β1 integrin.

B2: seven domain human VCAM-1 (receptor, UniProt P19320 25-739, looked up)
chain: FKIETTPESRYLAQIGDSVSLTCSTTGCESPFFSWRTQIDSPLNGKVTNEGTTSTLTMNPVSFGNEHSYLCTATCESRKLEKGIQVEIYSFPKDPEIHLSGPLEAGKPITVKCSVADVYPFDRLEIDLLKGDHLMKSQEFLEDADRKSLETKSLEVTFTPVIEDIGKVLVCRAKLHIDEMDSVPTVRQAVKELQVYISPKNTVISVNPSTKLQEGGSVTMTCSSEGLPAPEIFWSKKLDNGNLQHLSGNATLTLIAMRMEDSGIYVCEGVNLIGKNRKEVELIVQEKPFTVEISPGPRIAAQIGDSVMLTCSVMGCESPSFSWRTQIDSPLSGKVRSEGTNSTLTLSPVSFENEHSYLCTVTCGHKKLEKGIQVELYSFPRDPEIEMSGGLVNGSSVTVSCKVPSVYPLDRLEIELLKGETILENIEFLEDTDMKSLENKSLEMTFIPTIEDTGKALVCQAKLHIDDMEFEPKQRQSTQTLYVNVAPRDTTVLVSPSSILEEGSSVNMTCLSQGFPAPKILWSRQLPNGELQPLSENATLTLISTKMEDSGVYLCEGINQAGRSRKEVELIIQVTPKDIKLTAFPSESVKEGDTVIISCTCGNVPETWIILKKKAETGDTVLKSIDGAYTIRKAQLKDAGVYECESKNKVGSQLRSLTLDVQGRENNKDYFSPELLVLYFASSLIIPAIGMIIYFARKANMKGSYSLVEAQKSKV
notes: whole, on cells; Expressed on transiently transfected CHO/P cells; also called pCD3VCAM
For B2, the binding result was “no binding” with human α4β7 integrin [26] and “binds” in the experiment with human α4β1 integrin.
